The source of these data is publication PMC12435366, “Maleic anhydride derived diphosphines: adaptable chelators for receptor-targeted ^99mTc, ^64Cu and ^188Re radiotracers” (Chemical Science, 2025).

This data set deals with PSMA-expressing tumours. Put plainly: Ex vivo biodistribution across both mouse models (DU145-PSMA+ and LNCaP xenografts). The format is in vivo, mice. The following applies: both tracers, 2 h post-injection. The method, then: The biodistribution of [^99mTcO2(DP^An-PSMAt)2]^+ and [^99mTcO2(DP^MEP-PSMAt)2]^+ was studied using SPECT/CT imaging and ex vivo biodistribution methods. In these studies, [^99mTcO2(DP^An-PSMAt)2]^+ and [^99mTcO2(DP^MEP-PSMAt)2]^+ were used directly from kit-based formulations, without further purification, mimicking procedures used in clinical radiopharmacies and nuclear medicine departments. Mice were injected with [^99mTcO2(DP^An-PSMAt)2]^+ or [^99mTcO2(DP^MEP-PSMAt)2]^+ (4–5 MBq), containing 3 μg (2.6 nmol) of DP^An-PSMAt or 3.5 μg (2.6 nmol) of (DP^MEP-PSMAt) via the tail-vein, and culled 2 h post-injection, followed by dissection, organ/tissue weighing and counting. […]
For all animals, significant concentrations of ^99mTc radioactivity (2–5 %ID g^−1) were measured in PSMA-expressing tumours 2 h post-injection, and although ^99mTc tumour concentrations were consistently higher for animals administered [^99mTcO2(DP^An-PSMAt)2]^+, there were no statistically significant differences between [^99mTcO2(DP^An-PSMAt)2]^+ and [^99mTcO2(DP^MEP-PSMAt)2]^+ in either mouse model. For both tracers, there were also significant concentrations of ^99mTc radioactivity in the spleen, which is known to express low levels of PSMA and accumulate PSMA-targeted radiotracers,[9,10] and the liver. […]

As to `COCCOc1ccc(P(/C(C(=O)O)=C(/C(=O)NCCOCCOCCOCCOCCC(=O)NCCCC[C@H](NC(=O)N[C@@H](CCC(=O)O)C(=O)O)C(=O)O)P(c2ccc(OCCOC)cc2)c2ccc(OCCOC)cc2)c2ccc(OCCOC)cc2)cc1` [[^99mTcO2(DP^MEP-PSMAt)2]^+, metal not drawn], the “^99mTc radioactivity concentration in kidneys” value was 40–90 %ID g^−1.
Take `COc1ccc(P(/C(C(=O)O)=C(/C(=O)NCCOCCOCCOCCOCCC(=O)NCCCC[C@H](NC(=O)N[C@@H](CCC(=O)O)C(=O)O)C(=O)O)P(c2ccc(OC)cc2)c2ccc(OC)cc2)c2ccc(OC)cc2)cc1` [[^99mTcO2(DP^An-PSMAt)2]^+, metal not drawn]: the “^99mTc radioactivity concentration in kidneys” value is on record as 40–90 %ID g^−1.
